Values joined by “and” are separate entries in the source; they are usually repeats but may differ in a detail not shown here. Equal values may be shown once.
Molecular target: the molecule itself
Test: AUC

B1: homoserine acetyl transferase (HSAT, MetX, Rv3341) from M. tuberculosis, recombinant (His)6-MetX (enzyme)
chain: MTISDVPTQTLPAEGEIGLIDVGSLQLESGAVIDDVCIAVQRWGKLSPARDNVVVVLHALTGDSHITGPAGPGHPTPGWWDGVAGPGAPIDTTRWCAVATNVLGGCRGSTGPSSLARDGKPWGSRFPLISIRDQVQADVAALAALGITEVAAVVGGSMGGARALEWVVGYPDRVRAGLLLAVGARATADQIGTQTTQIAAIKADPDWQSGDYHETGRAPDAGLRLARRFAHLTYRGEIELDTRFANHNQGNEDPTAGGRYAVQSYLEHQGDKLLSRFDAGSYVILTEALNSHDVGRGRGGVSAALRACPVPVVVGGITSDRLYPLRLQQELADLLPGCAGLRVVESVYGHDGFLVETEAVGELIRQTLGLADREGACRR
  stoichiometry N: 2 and 4

From paper PMC9376091 (Scientific Reports, 2022)
